# From patent US20260000736A1, “PURIFIED LACTOFERRIN COMPOSITIONS AND METHODS OF USE” (Lactea Therapeutics LLC, priority 2023, published 2026)
# B1: Lactea-Lf: bovine lactoferrin purified from raw untreated milk by cation exchange chromatography and filtration according to Example 1 (protein)
# chain: APRKNVRWCTISQPEWFKCRRWQWRMKKLGAPSITCVRRAFALECIRAIAEKKADAVTLDGGMVFEAGRDPYKLRPVAAEIYGTKESPQTHYYAVAVVKKGSNFQLDQLQGRKSCHTGLGRSAGWVIPMGILRPYLSWTESLEPLQGAVAKFFSASCVPCIDRQAYPNLCQLCKGEGENQCACSSREPYFGYSGAFKCLQDGAGDVAFVKETTVFENLPEKADRDQYELLCLNNSRAPVDAFKECHLAQVPSHAVVARSVDGKEDLIWKLLSKAQEKFGKNKSRSFQLFGSPPGQRDLLFKDSALGFLRIPSKVDSALYLGSRYLTTLKNLRETAEEVKARYTRVVWCAVGPEEQKKCQQWSQQSGQNVTCATASTTDDCIVLVLKGEADALNLDGGYIYTAGKCGLVPVLAENRKTSKYSSLDCVLRPTEGYLAVAVVKKANEGLTWNSLKDKKSCHTAVDRTAGWNIPMGLIVNQTGSCAFDEFFSQSCAPGRDPKSRLCALCAGDDQGLDKCVPNSKEKYYGYTGAFRCLAEDVGDVAFVKNDTVWENTNGESTADWAKNLNREDFRLLCLDGTRKPVTEAQSCHLAVAPNHAVVSRSDRAAHVKQVLLHQQALFGKNGKNCPDKFCLFKSETKNLLFNDNTECLAKLGGRPTYEEYLGTEYVTAIANLKKCSTSPLLEACAFLTR
# Experiment: ITC-based assay, binding to LPS
molecule,measurement,value
B1,binding to LPS,binds to LPS
same,competition of LPS binding with HS binding,competitive with HS binding
